Tests used:
[1] = target: GL50 (ICOS-ligand) on mouse cells (WEHI 231, undifferentiated CCE ES cells, Balb/C and RAG1 -/- splenocytes) (mouse) (UniProt Q9JHJ8); assay: flow cytometry, titered staining of WEHI 231 cells
[2] = target: GL50 (ICOS-ligand) on mouse cells (WEHI 231, undifferentiated CCE ES cells, Balb/C and RAG1 -/- splenocytes) (mouse) (UniProt Q9JHJ8); assay: flow cytometry, Balb/C splenocytes, anti-CD3 stained subset
[3] = target: GL50 (ICOS-ligand) on mouse cells (WEHI 231, undifferentiated CCE ES cells, Balb/C and RAG1 -/- splenocytes) (mouse) (UniProt Q9JHJ8); assay: flow cytometry, Balb/C splenocytes, anti-CD4 stained subset
[4] = target: GL50 (ICOS-ligand) on mouse cells (WEHI 231, undifferentiated CCE ES cells, Balb/C and RAG1 -/- splenocytes) (mouse) (UniProt Q9JHJ8); assay: flow cytometry, Balb/C splenocytes, anti CD40 stained subset
[5] = target: GL50 (ICOS-ligand) on mouse cells (WEHI 231, undifferentiated CCE ES cells, Balb/C and RAG1 -/- splenocytes) (mouse) (UniProt Q9JHJ8); assay: flow cytometry, Balb/C splenocytes, anti CD69 stained subset
[6] = target: GL50 (ICOS-ligand) on mouse cells (WEHI 231, undifferentiated CCE ES cells, Balb/C and RAG1 -/- splenocytes) (mouse) (UniProt Q9JHJ8); assay: flow cytometry, Balb/C splenocytes, anti-CD19 stained subset
[7] = target: GL50 (ICOS-ligand) on mouse cells (WEHI 231, undifferentiated CCE ES cells, Balb/C and RAG1 -/- splenocytes) (mouse) (UniProt Q9JHJ8); assay: flow cytometry, Balb/C splenocytes, anti-CD24 stained subset
[8] = target: GL50 (ICOS-ligand) on mouse cells (WEHI 231, undifferentiated CCE ES cells, Balb/C and RAG1 -/- splenocytes) (mouse) (UniProt Q9JHJ8); assay: flow cytometry, Balb/C splenocytes, anti-CD8a stained subset
[9] = target: GL50 (ICOS-ligand) on mouse cells (WEHI 231, undifferentiated CCE ES cells, Balb/C and RAG1 -/- splenocytes) (mouse) (UniProt Q9JHJ8); assay: flow cytometry, RAG1-/- splenocytes, anti-CD4 stained subset
[10] = target: GL50 (ICOS-ligand) on mouse cells (WEHI 231, undifferentiated CCE ES cells, Balb/C and RAG1 -/- splenocytes) (mouse) (UniProt Q9JHJ8); assay: flow cytometry, Balb/C splenocytes, anti-CD11B stained subset
[11] = target: GL50 (ICOS-ligand) on mouse cells (WEHI 231, undifferentiated CCE ES cells, Balb/C and RAG1 -/- splenocytes) (mouse) (UniProt Q9JHJ8); assay: flow cytometry, Balb/C splenocytes, anti-CD11C stained subset
[12] = target: GL50 (ICOS-ligand) on mouse cells (WEHI 231, undifferentiated CCE ES cells, Balb/C and RAG1 -/- splenocytes) (mouse) (UniProt Q9JHJ8); assay: flow cytometry, RAG1-/- splenocytes, anti CD69 stained subset
[13] = target: GL50 (ICOS-ligand) on mouse cells (WEHI 231, undifferentiated CCE ES cells, Balb/C and RAG1 -/- splenocytes) (mouse) (UniProt Q9JHJ8); assay: flow cytometry, RAG1-/- splenocytes, anti-CD24 stained subset
[14] = target: GL50 (ICOS-ligand) on mouse cells (WEHI 231, undifferentiated CCE ES cells, Balb/C and RAG1 -/- splenocytes) (mouse) (UniProt Q9JHJ8); assay: flow cytometry, Balb/C splenocytes, anti-pan NK stained subset
[15] = target: GL50 (ICOS-ligand) on mouse cells (WEHI 231, undifferentiated CCE ES cells, Balb/C and RAG1 -/- splenocytes) (mouse) (UniProt Q9JHJ8); assay: flow cytometry, RAG1-/- splenocytes, anti-CD11B stained subset
[16] = target: GL50 (ICOS-ligand) on mouse cells (WEHI 231, undifferentiated CCE ES cells, Balb/C and RAG1 -/- splenocytes) (mouse) (UniProt Q9JHJ8); assay: flow cytometry, RAG1-/- splenocytes, anti-CD11C stained subset
[17] = target: GL50 (ICOS-ligand) on mouse cells (WEHI 231, undifferentiated CCE ES cells, Balb/C and RAG1 -/- splenocytes) (mouse) (UniProt Q9JHJ8); assay: flow cytometry, RAG1-/- splenocytes, anti-pan NK stained subset
[18] = target: GL50 (ICOS-ligand) on mouse cells (WEHI 231, undifferentiated CCE ES cells, Balb/C and RAG1 -/- splenocytes) (mouse) (UniProt Q9JHJ8); assay: flow cytometry, Balb/C splenocytes, anti class II stained subset
[19] = target: GL50 (ICOS-ligand) on mouse cells (WEHI 231, undifferentiated CCE ES cells, Balb/C and RAG1 -/- splenocytes) (mouse) (UniProt Q9JHJ8); assay: flow cytometry, RAG1-/- splenocytes, anti class II stained subset
[20] = target: GL50 (ICOS-ligand) on mouse cells (WEHI 231, undifferentiated CCE ES cells, Balb/C and RAG1 -/- splenocytes) (mouse) (UniProt Q9JHJ8); assay: flow cytometry, Balb/C splenocytes, anti-CD45R/B220 stained subset
[21] = target: GL50 (ICOS-ligand) on mouse cells (WEHI 231, undifferentiated CCE ES cells, Balb/C and RAG1 -/- splenocytes) (mouse) (UniProt Q9JHJ8); assay: flow cytometry, RAG1-/- splenocytes, anti-CD45R/B220 stained subset
[22] = target: GL50 (ICOS-ligand) on mouse cells (WEHI 231, undifferentiated CCE ES cells, Balb/C and RAG1 -/- splenocytes) (mouse) (UniProt Q9JHJ8); assay: flow cytometry, indirect staining of undifferentiated CCE ES cells
[23] = target: GL50 (ICOS-ligand) on mouse cells (WEHI 231, undifferentiated CCE ES cells, Balb/C and RAG1 -/- splenocytes) (mouse) (UniProt Q9JHJ8); assay: flow cytometry, RAG1-/- splenocytes, CD11b+ subset (text value; the table prints 31%)

concentration from which staining was minimally detectable [1]: 1 µg/mL | % ICOS-Ig positive [2]: 10% | % ICOS-Ig positive [3]: 8% | % ICOS-Ig positive [4]: 97% | % ICOS-Ig positive [5]: 25% | % ICOS-Ig positive [6]: 97% | % ICOS-Ig positive [7]: 94% | % ICOS-Ig positive [8]: 10% | % ICOS-Ig positive [9]: 45% | % ICOS-Ig positive [10]: 26% | % ICOS-Ig positive [11]: 43% | % ICOS-Ig positive [12]: 5% | % ICOS-Ig positive [13]: 28% | % ICOS-Ig positive [14]: 20% | % ICOS-Ig positive [15]: 31% | % ICOS-Ig positive [16]: 55% | % ICOS-Ig positive [17]: 3% | % ICOS-Ig positive [18]: 95% | % ICOS-Ig positive [19]: 3% | % ICOS-Ig positive [20]: 97% | % ICOS-Ig positive [21]: 5% | fluorescence shift over background [22]: 0.5 log | % ICOS-Ig positive [23]: 35%
B1: mICOS-mIgG2am (Fc fusion)
chain: EINGSADHRMFSFHNGGVQISCKYPETVQQLKMRLFREREVLCELTKTKGSGNAVSIKNPMLCLYHLSNNSVSFFLNNPDSSQGSYYFCSLSIFDPPPFQERNLSGGYLHIYESQLCCQLKLEPRGPTIKPCPPCKCPAPNLEGGPSVFIFPPKIKDVLMISLSPIVTCVVVDVSEDDPDVQISWFVNNVEVHTAQTQTHREDYNSTLRVVSALPIQHQDWMSGKAFACAVNNKDLPAPIERTISKPKGSVRAPQVYVLPPPEEEMTKKQVTLTCMVTDFMPEDIYVEWTNNGKTELNYKNTEPVLDSDGSYFMYSKLRVEKKNWVERNSYSCSVVHEGLHNHHTTKSFSRTPGK
